Experimental data published in patent US20230137139A1, “BIOSYNTHESIS OF CANNABINOIDS AND C[…]” (priority 2020, published 2023).
Numbering of substitutions follows the chain as printed.

B1: t861579 (protein)
chain: MGNTTSIAAGRDCLVSAVGPAHVTFQDALLYQTTAVDPYNLNIPVTPAAVTYPQSAEEIAAVVKCASDYDYKVQARSGGHSFGNYGLGGQNGAIVVDMKHFSQFSMDESTFVATIGPGTTLGDLDTELYNAGGRAMAHGICPTIRTGGHLTVGGLGPTARQWGLALDHIEEVEVVLANSSIVRASNTQNQDILFAVKGAAASFGIVTEFKVRTQEAPGLAVQYSFTFNLGSPAQKAKLVKDWQAFIAQENLSWKFYSNLVIFDGQIILEGIFFGSKEEYDELDLEKRFPTSEPGTVLVLTDWLGMIGHALEDTILKLVGDTPTWFYAKSLGFTPDTLIPDSAIDDFFDYIHKTNAGTLAWFVTLSLEGGAINSVSEDATAYGHRDVLFWFQVFVVNPLGPISQTTYDFTNGLYDVLAQAVPESAGHAYLGCPDPKMPDAQRAYWRSNLPRLEDLKGDLDPKDTFHNPQGVQVGP
B2: t861561 (protein)
chain: MGNTTSIAAGRDCLISAVGGNAAHVAFQDQLLYQATAVDVYNLNIPVTPAAVTYPQSADEVAAVVKCASEYDYKVQARSGGHSFGNYGLGGQNGAIVVDMKHFSQFSMDESTYTATIGPGITLGDLDTELYNAGHRAMAHGICPTIRTGGHLTIGGLGPTARQWGLALDHVEEVEVVLANSSIVRASETQNQDVLFAVKGAAASFGIVTEFKVRTEQAPGLAVQYSYTFNLGTPAEKAKLLKDWQAFIAQEDLTWKFYSNMVIFDGQIILEGIFFGSKEEYDALDLEKRFPTSEPGTLLVLTDWLGMVGHSLEDVILRLVGNTPTWFYAKSLGFTPRTLIPDSAIDRFFDYIHETNAGTLAWFVTLSLEGGAINAVPEDATAYGHRDVLFWVQIFMVNPLGPISQTIYDFADGLYDVLAQAVPESAEHAYLGCPDPKMPDAQRAYWRGNLPRLEELKGEFDPKDTFHNPQGVSVAV
B3: t861566 (protein)
chain: MGNTTSIAGRDCLVSALGGNSALAAFPNQLLWTADVHEYNLNLPVTPAAITYPETAEQIAGIVKCASDYDYKVQARSGGHSFGNYGLGGTDGAVVVDMKHFNQFSMNDQTYEAVIGPGTTLNDVDIELYNNGKRAMAHGVCPTIKTGGHFTIGGLGPTARQWGLALDHVEEVEVVLANSSIVRASNTQNQDVFFAVKGAAADFGIVTEFKVRTEPAPGLAVQYSYTFNLGSTAEKAQFVKDWQSFISAKNLTRQFYNNMVIFDGDIILEGLFFGSKEQYDALGLEDHFAPKNPGNILVLTDWLGMVGHALEDTILKLVGNTPTWFYAKSLGFRQDTLIPSAGIDEFFEYIANHTAGTPAWFVTLSLEGGAINDVAEDATAYAHRDVLFWVQLFMVNPLGPISETTYEFTDGLYDVLARAVPESVGHAYLGCPDPRMENAPQKYWRTNLPRLQELKEELDPKNTFHHPQGVIPA
B4: t861587 (protein)
chain: B3 chain
B5: t861580 (protein)
chain: MGQTPSSPLADCLNAVCNGRDNCVAFPSAPLYQISWVDRYNLDIEVEPIAVTRPETAEDVSGFVKCAAAHNIKVQAKSGGHSYANYGLGGEDGELVVDLRNFQDFSIDTNTWQATFGAGHKLDDVTEKLHKNGKRAISHGTCPGVGIGGHATIGGLGPESRMWGSCLDHVIGVEVVTADGSIVHASDTENSDLFFALKGAGASFGIVTSFVVKTRPEPGSVVQYSYSVTFAKHADLSPVFRQWQELVMDPGLDRRFGTEFTMHELGVIISGTFYGTDEEFQATGIPDRIPKGKISVVFDDWMAVIAKHAEEAALSLSSISSAFTARSLAFRREDKISPETITNLMNYIDSADRGTLVWFLIFDATGGAISDVPTNATAYSHRDKVMYCQGYGVGIPTLNQQTKDFLSGIINTIQSGAGNTLTTYPGYVDPALTNPQESYWGPNIDTLRAIKSQWDPNDIFHNPQSVRPAAVAA
modifications: Monosporascus sp. mg162
B6: t861554 (protein)
chain: MGNTTSIAAGRDCLISAVGAANVAFQDQLLYQATAVQPYNLNIPVTPAAVTYPQSADEIAAVVKCASEYGYKVQARSGGHSFGNYGLGGQDGAIVIEMKHFSQFSMDESTFIATIGPGITLGDLDTDLYNAGHRAMAHGICPTIRTGGHLTVGGLGPTARQWGLALDHVEEVEVVLANSSIVRASDTQNQDLFFAIKGAAASFGIVTEFKVRTEQAPGMAVQYSYTFHLGTSAEKAKFVKDWQAFIAQENLTWKFYTNLVIFDDQIILEGIYFGTKEEYDSLGLEQRFPPTDAGTVLILTDWLAMIGHGLEDTILKLVGDTPTWFYAKSLGFTPRALIPDSAIDEFFDYIHENNPGTLAWFVTLSLEGGAINAVPEDATAYGHRDVLFWFQLFVINPLGPISQTTYGFADGLYDVLAQAVPESASHAYMGCPDPRMPNAQRAYWRSNLPKLEELKGYLDPEDIFHNPQGVVPS
B7: t861589 (protein)
chain: MGNTTSIAGRDCLISALGGNSALAVFPNELLWTADVHEYNLNLPVTPAAITYPETAAQIAGVVKCASDYDYKVQARSGGHSFGNYGLGGADGAVVVDMKHFTQFSMDDETYEAVIGPGTTLNDVDIELYNNGKRAMAHGVCPTIKTGGHFTIGGLGPTARQWGLALDHVEEVEVVLANSSIVRASNTQNQDVFFAVKGAAANFGIVTEFKVRTEPAPGLAVQYSYTFNLGSTAEKAQFVKDWQSFISAKNLTRQFYNNMVIFDGDIILEGLFFGSKEQYDALGLEDHFAPKNPGNILVLTDWLGMVGHALEDTILKLVGNTPTWFYAKSLGFRQDTLIPSAGIDEFFEYIANHTAGTPAWFVTLSLEGGAINDVAEDATAYAHRDVLFWVQLFMVNPLGPISDTTYEFTDGLYDVLARAVPESVGHAYLGCPDPRMEDAQQKYWRTNLPRLQELKEELDPKNTFHHPQGVMPA
B8: t861574 (protein)
chain: B7 chain with V25A, A57E, V62I, V374I
B9: t861590 (protein)
chain: B7 chain with V25A, A57E, V374I
B10: t861571 (protein)
chain: B7 chain with L398V
B11: t861558 (protein)
chain: B7 chain with V25A, A57E, V374I

System: CBCA production
Assay: In vivo TS activity assay, Example 4 CBCAS enzymes with and without signal peptides, no pH adjustment
Assay type: cell-based
Settings: strains with (Y) or without (N) N-terminal and C-terminal signal peptides; no pH adjustment at Day 4; S. cerevisiae
Description: An assay to detect TS activity was conducted as follows: each thawed glycerol stock of candidate CBCAS transformants was stamped into a well of YEP+4% dextrose media. Samples were incubated at 30° C. in a shaking incubator for 2 days. A portion of each of the resulting cultures was stamped into a well of YEP+4% galactose+1 mM olivetolic acid (FIG. 1 Structure 6a). Samples were incubated at 20° C. and shaken in a shaking incubator for 4 days. Every 24 hours during those 4 days, 2% galactose and 1 mM olivetolic acid were spiked into the cultures. Sodium citrate buffer adjusted to pH 5.5 was added to each well at a final concentration of 100 mM. Samples were incubated at 20° C. and shaken in a shaking incubator for 2 days. A portion of each of the resulting production cultures was stamped into a well of phosphate buffered saline (PBS). Optical measurements were taken on a plate reader, with absorbance measured at 600 nm and fluorescence at 528 nm with 485 nm excitation. Samples were incubated at 30° C. in a shaking incubator for 2 days. 100% methanol was stamped into the production cultures in half-height deepwell plates. Plates were heat sealed and frozen. Samples were then thawed for 30 min and spun down at 4° C. A portion of the supernatant was stamped into half-area 96 well plates. CBCA, THCA, and CBDA production in the samples was quantified via liquid chromatography-mass spectrometry (LC-MS).
A library of 20 CBCAS enzymes selected from Example 1 and 3 was synthesized, including versions of the CBCAS enzymes with and without the N-terminal MFalpha2 signal peptide (SEQ ID NO: 16) and C-terminal HDEL signal peptide (SEQ ID NO: 17). Each candidate enzyme expression construct was transformed into an S. cerevisiae CEN.PK strain that also expressed a prenyltransferase enzyme capable of catalyzing reaction R^4 in FIG. 2. Strain t861555 expressing the A. niger CBCAS identified in Example 1, carrying both the Mfalpha2 and HDEL signal peptides was included in the library screen as a positive control for enzyme activity. Strain t861565 expressed the same A. niger CBCAS without the Mfalpha2 and HDEL signal peptides.
The strains were screened using the assay described in Example 1 with the following exception: at Day 4 samples were not subjected to a pH adjustment and a further 2 days of incubation at 20° C.

B1 and B2 are within 1.5-fold of each other in “Average CBCA” value: 57912.84 µg/L for the first, 46161.25 µg/L for the second.

B3 and B4 are within 1.5-fold of each other in “Average CBCA” value: 61918.09 µg/L for the first, 82883.01 µg/L for the second.

First: B5
Second: B6
The “Average CBCA” value of the first is lower: 0.00 µg/L for the first, 5334.71 µg/L for the second.

Going from B7 to B8, the “Average CBCA” value falls from 95796.21 µg/L to 38142.03 µg/L (2.5-fold).

B9 and B10 are within 1.5-fold of each other in “Average CBCA” value: 55852.93 µg/L for the first, 54271.76 µg/L for the second.

With B11 the “Average CBCA” value was 27898.00 µg/L.
